In patent publication US20250282879A1 (CILAG GMBH INTERNATIONAL, published 2025):

T1: recombinant human IL-31 protein (Peprotech) (human, UniProt Q6EBC2 24-164)
T1 sequence (looked up): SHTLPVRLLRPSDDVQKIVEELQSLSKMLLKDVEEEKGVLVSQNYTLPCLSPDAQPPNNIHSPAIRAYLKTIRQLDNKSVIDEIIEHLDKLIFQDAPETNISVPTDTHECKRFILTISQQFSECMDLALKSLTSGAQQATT


What was measured:
[1] = molecular target: T1, recombinant human IL-31 protein …; assay: cell-based or functional assay
[2] = molecular target: T2, recombinant cynomolgus monkey IL-31 (ECD with His Tag, Sino Biological) (cynomolgus monkey); assay: SPR, Morrison captured on immobilized human IL-4R-Fc, IL-31 analyte, single-cycle
T2 construct: manufactured on demand by Sino Biological; also called cynomolgus IL-31-His; cyno IL-31
Method: (§1) Binding kinetics (including affinity) of the bispecific Morrison-H (PRO2198, PRO2199) and Morrison-L (PRO2206, PRO2207) molecules to recombinant human IL-31 protein (Peprotech) were determined by SPR analysis on a T200 device (Biacore, Cytiva). In this SPR experiment, Morrison antibodies were injected over a carboxylmethylated dextran surface (CM5 sensorchip; Biacore, Cytiva) immobilized with human recombinant IL-4R protein (ECD with Fc Tag, R&D Systems) and a titration series of human IL-31 was injected as analyte. […] The calculation of the kinetics and the apparent dissociation equilibrium constant (KD) as well as the measurement for the quality of curve fitting were done as described above for IL-4R. The binding level was calculated as the maximum stability binding achieved normalized to the theoretical Rmax. Cross-reactivity to cynomolgus monkey IL-31 was measured using the same setup as for the analysis of human IL-31 affinities, with the difference that recombinant cynomolgus monkey IL-31 (ECD with His Tag, Sino Biological) protein was used as analytes instead of human IL-31.
(§2) After having shown a stable capture of Morrison antibodies via recombinant human IL-4R protein, IL-31 was injected as analyte and the kinetics of the binding of IL-31 to captured Morrison molecules were calculated.

[3] = molecular target: T1, recombinant human IL-31 protein …; assay: as above
Method: as §1, §2

[4] = molecular target: T3, human IL-4R on cells (HEK-Blue IL-4/IL-13 cells, human PBMC, human whole blood) (human, UniProt P24394 26-825); assay: cell-based or functional assay
[5] = molecular target: T4, recombinant cynomolgus monkey IL-4R (ECD with His-tag, Acro Biosystems) (cynomolgus monkey, UniProt A0A2K5V556 26-232); assay: SPR, Morrison captured via anti-human IgG-Fc, IL-4R ECD-His analyte
T4 construct: bought; also called cynomolgus IL-4R
T4 sequence (A0A2K5V556 entry or part of it limits assumed): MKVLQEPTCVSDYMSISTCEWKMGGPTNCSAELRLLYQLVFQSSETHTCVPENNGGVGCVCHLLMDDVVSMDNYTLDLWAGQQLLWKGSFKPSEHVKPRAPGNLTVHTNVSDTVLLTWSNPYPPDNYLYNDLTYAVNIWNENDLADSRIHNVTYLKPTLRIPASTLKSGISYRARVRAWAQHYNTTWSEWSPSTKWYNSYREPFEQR
Method: (§3) Binding kinetics (including affinity) of the bispecific Morrison-H (PRO2198, PRO2199) and Morrison-L (PRO2206, PRO2207) molecules to recombinant human IL-4R protein (ECD with His Tag, Sino Biological) were determined by SPR analysis on a T200 device (Biacore, Cytiva). In this SPR experiment, Morrison molecules were captured via an anti-human IgG-Fc antibody (Human Antibody Capture Kit; Biacore, Cytiva) covalently immobilized to a carboxylmethylated dextran surface (CM5 sensorchip; Biacore, Cytiva) and a titration series of human IL-4R ECD was injected as analyte. After each analyte injection cycle, the sensor chip was regenerated (MgCl₂), and new Morrison antibody was subsequently re-captured. […] The apparent dissociation (kd) and association (kₐ) rate constants and the apparent dissociation equilibrium constant (KD) were calculated with the Biacore analysis software (Biacore Evaluation software Version 3.2, Cytiva) using one-to-one Langmuir binding model and quality of the fits was monitored based on Chi2 and U-value, which are measures for the quality of the curve fitting. The binding level was calculated as the maximum stability binding achieved normalized to the theoretical Rmax. Cross-reactivity to cynomolgus monkey IL-4R was measured using the same setup as for the analysis of human IL-4R kinetics, with the difference that recombinant cynomolgus monkey IL-4R (ECD with His-tag, Acro Biosystems) protein was used as analyte instead of human IL-4R.

[6] = molecular target: T5, recombinant human IL-4R protein (ECD with His Tag, Sino Biological) (human, UniProt P24394 26-232); assay: as above
T5 construct: extracellular domain; bought; also called human IL-4R ECD; not shown: His Tag
Method: as §3

[7] = molecular target: T6, cynomolgus IL-4R on transfected HEK293T cells (cynomolgus monkey, UniProt A0A2K5V580 33-832); assay: flow cytometry, transfected HEK293T cells
T6 construct: whole, on cells; also called cynomolgus IL-4R-expressing HEK293T cells; not shown: V5 Tag fused to the N-terminus of the expression construct
T6 sequence (A0A2K5V580 entry or part of it): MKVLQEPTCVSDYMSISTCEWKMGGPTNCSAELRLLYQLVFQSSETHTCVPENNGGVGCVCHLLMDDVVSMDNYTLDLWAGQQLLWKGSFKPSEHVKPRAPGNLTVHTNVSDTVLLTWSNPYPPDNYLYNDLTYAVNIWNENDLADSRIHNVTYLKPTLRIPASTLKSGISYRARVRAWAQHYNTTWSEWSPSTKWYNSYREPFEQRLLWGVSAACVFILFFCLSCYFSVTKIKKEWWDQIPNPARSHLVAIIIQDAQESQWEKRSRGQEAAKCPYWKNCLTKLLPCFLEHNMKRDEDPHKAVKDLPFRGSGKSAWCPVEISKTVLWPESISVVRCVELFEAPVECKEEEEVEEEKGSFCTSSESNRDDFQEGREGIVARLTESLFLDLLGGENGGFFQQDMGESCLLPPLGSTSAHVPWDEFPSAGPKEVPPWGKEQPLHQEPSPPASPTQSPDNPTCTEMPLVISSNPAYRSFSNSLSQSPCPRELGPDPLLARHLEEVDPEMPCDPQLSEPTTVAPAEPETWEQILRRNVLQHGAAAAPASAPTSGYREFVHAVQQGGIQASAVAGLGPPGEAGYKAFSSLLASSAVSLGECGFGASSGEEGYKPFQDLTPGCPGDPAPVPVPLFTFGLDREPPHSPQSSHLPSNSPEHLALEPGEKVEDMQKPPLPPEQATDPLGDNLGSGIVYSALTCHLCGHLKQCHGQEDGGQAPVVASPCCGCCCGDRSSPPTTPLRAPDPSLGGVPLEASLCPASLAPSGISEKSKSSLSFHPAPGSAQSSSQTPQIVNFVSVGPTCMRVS
Description: (§4) To test binding of the Morrison-H and Morrison-L antibodies PRO2198, PRO2199, PRO2206 and PRO2207 to human or cynomolgus IL-4R-expressing HEK293T cells, HEK293T cells were transfected with human and cynomolgus IL-4R plasmids and mock plasmid using Lipofectamine3000. Binding of an antibody targeting V5 Tag, which is fused to the N-terminus of human and cynomolgus IL-4R expression constructs, would confirm successful expression of both targets and was thus used as a positive control for plasma membranous binding. The Morrison-H molecule PRO2077 was used as negative control for cynomolgus IL-4R binding since this molecule had not shown any cross-reactivity to cynomolgus IL-4R (see section 5.3.).
(§5) 50,000 transfected HEK293T cells per well were seeded in a 96-well plate. 5-fold serial dilutions of the Morrison-H and Morrison-L antibodies PRO2198, PRO2199, PRO2206 and PRO2207 and of the control molecule PRO2077, which is not cross-reactive to cynomolgus IL-4R, were added at concentrations ranging from 5,000 to 0.32 ng/ml to the plates and incubated for 60 min at 4° C. on a shaker. Supernatants were removed and detection reagent was added for flow cytometry analysis. The geometric mean of the APC fluorescence intensity of single cells was calculated.

[8] = molecular target: T7, human IL-4R on transfected HEK293T cells (human, UniProt P24394 26-825); assay: flow cytometry, transfected HEK293T cells
T7 construct: whole, on cells; also called human IL-4R-expressing HEK293T cells; not shown: V5 Tag fused to the N-terminus of the expression construct
Description: as §4, §5

[9] = molecular target: T3, human IL-4R on cells (HEK-Blue …); assay: cell-based or functional assay; remark: listed apart in the source
[10] = molecular target: T3, human IL-4R on cells (HEK-Blue …); assay: cell-based or functional assay; remark: listed apart in the source

IC50 (single analysis), human IL-31-induced signaling, IL-31RA/OSMR dimerization assay [1] [nM] | Kd [2] [nM] | koff [2] [s⁻¹] | kon [2] [M⁻¹ s⁻¹] | Kd [3] [nM] | koff [3] [s⁻¹] | kon [3] [M⁻¹ s⁻¹] | IC50 (single analysis), human IL-13-induced signaling, stat-6 reporter gene assay [4] [nM] | Kd [5] [nM] | koff [5] [s⁻¹] | kon [5] [M⁻¹ s⁻¹] | Kd [6] [nM] | koff [6] [s⁻¹] | kon [6] [M⁻¹ s⁻¹] | EC50 [7] [nM] | EC50 [8] [nM] | IC50 (single analysis), human IL-4-induced signaling, stat-6 reporter gene assay [9] [nM] | IC50, IL-4-induced CD23 expression, memory B cells [10] [nM] | IC50, IL-4-induced CD23 expression, naive B cells [10] [nM] | Binder | other results
0.23 | 0.169 | < 1e-05 | 59300 | 0.107 | 2.36e-05 | 220000 | 0.0295 | 0.209 | 2.42e-05 | 116000 | 0.0477 | 1.95e-05 | 409000 | 0.9 | 0.83 | 0.0118 | 4.34 | 1.48 | PRO2206 (bispecific antibody, human IgG4 S228P, kappa, IgG4 (S228P) Morrison-L, anti-IL-31 scFv on the C-terminus of the light chain; also called Morrison-L; MorrL) light: DIQMTQSPSSLSARVGDRVTITCQASEDIESYLAWYQQKPGKAPKLLIYRASTLAYGVPSRFSGSGSGRDFTLTISSLQPEDFATYYCLGSSYSTGSNIFGQGTKVEIKRTVAAPSVFIFPPSDEQLKSGTASVVCLLNNFYPREAKVQWKVDNALQSGNSQESVTEQDSKDSTYSLSSTLTLSKADYEKHKVYACEVTHQGLSSPVTKSFNRGECGGGGSGGGGSAFQLTQSPSSLSASVGDRVTITCQASQSIDSWLAWYQQKPGKPPKLLIYQASKLASGVPSRFSGSGSGTDYTLTISSLQPEDFATYYCQTYYGGGHIGWGFGTGTKVTVLGGGGGSGGGGSGGGGSGGGGSQSQLVESGGGRVQPGGSLRLSCAASGFSFSANYWICWVRQAPGKGLEWIVCIYIGSRADTYYAPWAKGRFTISKDNSKNTVYLQMNSLRAEDTATYFCARFSSGIYDLDRFFLWGQGTQVTVSS heavy: not shown | IC50, IL-4-induced CD23 expression, monocytes (blood donor 2) [10]: 0.111 nM
0.215 | 0.164 | < 1e-05 | 60900 | 0.152 | 2.47e-05 | 163000 | 0.0126 | 0.011 | 2.77e-05 | 2.53e+06 | 0.189 | 4.61e-05 | 244000 | 0.65 | 0.6 | 0.0094 | 1.58 | 1.04 | PRO2207 (bispecific antibody, human IgG4 S228P, kappa, IgG4 (S228P) Morrison-L; also called Morrison-L; MorrL) light: DIQMTQSPSSLSASVGDRVTITCQASEDIESYLAWYQQKPGKAPKLLIYRASTLAYGVPSRFSGSGSGTDFTLTISSLQPEDFATYYCLGSSYSTGSNIFGQGTKVEIKRTVAAPSVFIFPPSDEQLKSGTASVVCLLNNFYPREAKVQWKVDNALQSGNSQESVTEQDSKDSTYSLSSTLTLSKADYEKHKVYACEVTHQGLSSPVTKSFNRGECGGGGSGGGGSAFQLTQSPSSLSASVGDRVTITCQASQSIDSWLAWYQQKPGKPPKLLIYQASKLASGVPSRFSGSGSGTDYTLTISSLQPEDFATYYCQTYYGGGHIGWGFGTGTKVTVLGGGGGSGGGGSGGGGSGGGGSQSQLVESGGGRVQPGGSLRLSCAASGFSFSANYWICWVRQAPGKGLEWIVCIYIGSRADTYYAPWAKGRFTISKDNSKNTVYLQMNSLRAEDTATYFCARFSSGIYDLDRFFLWGQGTQVTVSS heavy: not shown | IC50, IL-4-induced CD23 expression, monocytes (blood donor 3) [10]: ~0.0545 nM
